Laboratory results as given in patent US20220411514A1, “ANTI-GAL3 ANTIBODIES AND METHODS OF USE FOR INSULIN RESISTANCE” (TrueBinding, Inc., priority 2021, published 2022).

B1: 847.16D10: anti-Gal3 antibody (antibody, V domains shown)
VH: QVQLQQSGAELVRPGASVKLSCKASGYTFTGYWLNWVKQRPGQGLEWIGMIDPSDSETHYNQVFKDKATMTVDRSSSTAYMQLSGLTSEDSAVYYCANSNYASGSWGQGTTLTVSS
VL: QAVVTQESALTTSPGETVTLTCRSSTGAVTTSNYANWDQEKPDHLFTGLIGGTNNRAPGVPARFSGSLIGDKAALTITGAQTEDEAIYFCALWYSNHLVFGGGTKVTVL
B2: 847.21B11: anti-Gal3 antibody (antibody, V domains shown)
VH: QVQLKQSGPGLVAPSQSLSITCTVSGFSLTSYGVHWVRQPPGKGLEWLGIIWAGGSTNYNPALMSRLSISKDKSKSQVFLKMNSLKTDDTAMYYCARDRASLLRPGAMDYWGQGTSVTVSS
VL: DIVMTQSQKFMSTSVGDRVSVTCKASQNVGINVAWYQQKPGQSPKALIYSASYRYSGVPDRFTGSGSGTDFTLTISNVQSEDLAEYFCQQYNSYPYTFGGGTKLEMK
B3: 849.5H1: anti-Gal3 antibody (antibody, V domains shown)
VH: QVQLKESGPVLVAPSQSLSITCTVSGFSLTSYGIHWVRQPPGKGLEWLGVIWAGGSTNYNSALMSRLSISKDNSKSQVFLKMNSLQIDDTAMYYCAKPPHDYDQAWFAYWGQGTLITVSA
VL: DIQMNQSPSSLSASLGDTITITCHASQNINVWLSWYQQKPGNIPKLLIYQASNLHTGVPSRFSGRGSGTGFTLTISSLQPEDIATYYCQQGQSSPFTFGSGTKLEIK
B4: 846T.4C9: anti-Gal3 antibody (antibody, V domains shown)
VH: EVQLQQSGPELVKPGASVKMSCKASGYSFTNYIMHWVKQKPGQGLEWIGYINPYNDGTKYNEKFKGKATLTSDKSSSTAYMELSSLTSEDSAVYYCARLLFYYAMDYWGQGTSVTVSS
VL: DILMTQTPSSMSVSLGDTVSITCHASQGISSNIGWLQQKPRKSFKGLIYYGTNLEDGVPSRFSGSGSGADYSLTISSLESEDFADYYCVQYDQFPWTFGGGTKLEIK
B5: 849.2D7: anti-Gal3 antibody (antibody, V domains shown)
VH: QVQLQQSGPQLVRPGASVKISCKASGYSFTNYWMHWVKQRPGQGLEWIGMIDPSDSETRLNQKFKDKATLTVDKSSSTAYMQLSSPTSEDSAVYYCATGRPDYWGQGTTLTVSS
VL: DIVMTQSHKFMSTSVGDRVSITCKASQDVSTAVAWYQQKPGQSPKLLIYWASTRHTGVPDRFTGSGSGTDYTLTISSVQAEDLALYYCQQHYSTPYTFGGGTKLEIK
B6: 847.20H7: anti-Gal3 antibody (antibody, V domains shown)
VH: QVQLQQSGAELVRPGASVNLSCKASGYTFTNYWMNWVKQRPGQGLEWVGMIDPSDSETHYNQMFKDKATLTIDKSSSIAYMQLSSLTSEDSAVYYCARWGAMDYWGQGTSVTVSS
VL: DIVMTQSHKIMSTSVGDRVSITCKASQDVSTTVAWFQQKPGQSPKLLLYWASTRHTGVPDRFTGSGSGTDYTLTISSVQAEDLALYYCQQHYSPPFTFGSGTKLEIK
B7: 847.15F9: anti-Gal3 antibody (antibody, V domains shown)
VH: QVQMKQSGPGLVQPSQSLSITCTVSGFSLINYGVHWVRQSPGKGLEWLGVIWSGGSTDYNAAFISRLSISKDNSKSQVFFKMNSLQADDTAIYYCARIYYYGRGYAMDYWGQGTSVTVSS
VL: QIVLSQSPAILSASPGEKVTMTCRASSSVTYMYWYQQKPGSSPQPWIYATSNLASGVPARFSGSGSGTSYSLTISRVEAEDAATYYCQQWSSNPLTFGAGTKLELK

How the values were obtained:
[1] = biological target: T1, human Gal3 (Homo sapiens, UniProt P17931); test: Epitope binning, sandwich format, SPR Carterra LSA (Example 8); type: binding
T1 construct: 6xHis (linker-spaced) (C); purchased AcroBio (Acro Biosystems) GA3-H5129
Method: The epitope binning assay was done in a sandwich format on the high-throughput SPR-based Carterra LSA unit (CarterraBio, Salt Lake City, Utah). First, the purified antibodies were diluted to 10 μg/ml concentration in 10 mM NaOAc (pH 5.0) and then were covalently coupled via amine group to HC200M chip activated by EDC and S-NHS to immobilize antibodies to different positions of a 384-spot array. One hundred thirty-eight binning cycles were run on the array of immobilized antibodies. In each cycle, first, human Gal3 (AcroBio GA3-H5129) was injected over the entire array to bind to different antibodies (primary antibody), followed by one antibody (secondary antibody) selected among the panel of 150 anti-GAL3 antibodies tested. At the end of each cycle, the array was regenerated by 10 mM Glycine (pH 2.0) to remove bound antigen and secondary antibody from the array. The data analysis was done using the Epitope software by CarterraBio.

[2] = system: Human Gal3 peptides; test: Gal3 peptide binding ELISA (Example 8); details: antibody 5 μg/mL
Method: Gal3 peptide binding activity of additional exemplary anti-Gal3 antibodies was assessed with the same peptides as described in FIG. 18 (SEQ ID NOs: 3-26). Human Gal3 peptides (LifeTein, custom order) and human Gal3 proteins (R&D Systems, 8259-GA; TrueBinding, QCB200349) were diluted in PBS (Corning, 21-030-CM) to concentrations of at least 100 μg/mL (peptides) or 1 μg/mL (proteins), and added to the wells of several 96-well ELISA plates (Thermo Fisher, 44-2404-21). After incubating the plates at 4° C. overnight, the plates were washed three times with PBST (PBS with 0.05% Tween 20 [VWR, 0777]). The plates were then blocked for an hour with 2% BSA (EMD Millipore, 126609) in PBST at room temperature with gentle rocking. Thereafter, the 2% BSA in PBST was discarded and Gal3-binding antibodies (reformatted hIgG4 [S228P]) were diluted in 2% BSA in PBST to concentrations of 5 μg/mL and added to the wells. The plates were incubated for an hour at room temperature with gentle rocking and then washed three times with PBST. Afterwards, Peroxidase AffiniPure F(ab′)2 Fragment Goat Anti-Human IgG (H+L) polyclonal antibody (Jackson ImmunoResearch, 109-036-003), was diluted in 2% BSA in PBST (1:4000) and added to the wells. The plates were incubated for 1 hour at room temperature with gentle rocking and then washed three times with PBST. TMB substrate (Thermo Scientific, 34029) was then added to each well. The reaction was stopped with 1M HCl (JT Baker, 5620-02) and read using a plate reader (Molecular Devices) at absorbance of 450 nm.

T1 sequence (P17931 whole entry): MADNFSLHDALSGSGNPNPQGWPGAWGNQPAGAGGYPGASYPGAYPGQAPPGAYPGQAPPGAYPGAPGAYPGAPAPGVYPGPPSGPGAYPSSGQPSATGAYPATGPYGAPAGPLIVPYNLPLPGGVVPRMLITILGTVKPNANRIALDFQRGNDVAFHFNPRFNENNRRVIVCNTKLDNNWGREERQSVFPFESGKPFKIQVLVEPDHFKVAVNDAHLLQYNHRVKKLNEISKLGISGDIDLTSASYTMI

| Molecule | epitope bin (mutual competitive binding for Gal3) [1] | binding to any of the tested Gal3 peptides [2] | binding to hGAL3 when immobilized on HC200M chip [1] |
| --- | --- | --- | --- |
| B1 | CRD | not found to bind | – |
| B2 | – | not found to bind | not bind |
| B3 | 21 | not found to bind | – |
| B4 | – | not found to bind | not bind |
| B5 | 10 | not found to bind | – |
| B6 | – | not found to bind | – |
| B7 | – | not found to bind | not bind |
